Measured values from patent publication US20200024322A1 (Eli Lilly, published 2020).
Numbered stars: 1 amine (or outer) side, 2 acyl side, 3 side chain; on linkers, the order of the positions; unused ones are H or OH. Square brackets hold non-standard residues; d marks the D form. Side chains are listed from the residue outwards. Ends that are not written are not given here. * marks the point of attachment. C20 diacid = O=C(O)CCCCCCCCCCCCCCCCCCC(=O)*; γGlu = O=C(O)[C@H](CCC(=O)[*:2])N[*:1]; AEEA = NCCOCCOCC(=O)O; Aib = CC(C)(N)C(=O)O

T1: human GIP receptor (human, UniProt P48546 22-466)
T1 construct: whole, on cells; Used as crude membranes of stably transfected CHO cells; also called hGIPR
T1 sequence (looked up): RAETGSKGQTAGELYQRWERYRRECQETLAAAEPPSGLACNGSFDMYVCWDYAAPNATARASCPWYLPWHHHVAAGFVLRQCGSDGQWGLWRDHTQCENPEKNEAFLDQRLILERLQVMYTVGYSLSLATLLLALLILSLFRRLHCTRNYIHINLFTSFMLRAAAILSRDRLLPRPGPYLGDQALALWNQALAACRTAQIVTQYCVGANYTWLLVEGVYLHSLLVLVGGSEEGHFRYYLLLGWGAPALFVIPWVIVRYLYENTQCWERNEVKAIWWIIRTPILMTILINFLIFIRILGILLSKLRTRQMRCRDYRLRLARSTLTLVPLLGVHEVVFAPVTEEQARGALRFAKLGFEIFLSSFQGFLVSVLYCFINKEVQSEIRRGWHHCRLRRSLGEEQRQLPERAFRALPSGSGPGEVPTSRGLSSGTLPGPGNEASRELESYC

B1: Example 46 (peptide)
peptide: Y[Aib]EGTFTSDYSILLDKIAQ[Aib]AFIEYLIEGGPSSGAPK([AEEA-AEEA-γGlu-C20 diacid])PS-NH2
modifications: N-terminus assumed
SMILES: CC[C@H](C)[C@H](NC(=O)[C@H](CCCCN)NC(=O)[C@H](CC(=O)O)NC(=O)[C@H](CC(C)C)NC(=O)[C@H](CC(C)C)NC(=O)[C@@H](NC(=O)[C@H](CO)NC(=O)[C@H](Cc1ccc(O)cc1)NC(=O)[C@H](CC(=O)O)NC(=O)[C@H](CO)NC(=O)[C@@H](NC(=O)[C@H](Cc1ccccc1)NC(=O)[C@@H](NC(=O)CNC(=O)[C@H](CCC(=O)O)NC(=O)C(C)(C)NC(=O)[C@@H](N)Cc1ccc(O)cc1)[C@@H](C)O)[C@@H](C)O)[C@@H](C)CC)C(=O)N[C@@H](C)C(=O)N[C@@H](CCC(N)=O)C(=O)NC(C)(C)C(=O)N[C@@H](C)C(=O)N[C@@H](Cc1ccccc1)C(=O)N[C@H](C(=O)N[C@@H](CCC(=O)O)C(=O)N[C@@H](Cc1ccc(O)cc1)C(=O)N[C@@H](CC(C)C)C(=O)N[C@H](C(=O)N[C@@H](CCC(=O)O)C(=O)NCC(=O)NCC(=O)N1CCC[C@H]1C(=O)N[C@@H](CO)C(=O)N[C@@H](CO)C(=O)NCC(=O)N[C@@H](C)C(=O)N1CCC[C@H]1C(=O)N[C@@H](CCCCNC(=O)COCCOCCNC(=O)COCCOCCNC(=O)CC[C@H](NC(=O)CCCCCCCCCCCCCCCCCCC(=O)O)C(=O)O)C(=O)N1CCC[C@H]1C(=O)N[C@@H](CO)C(N)=O)[C@@H](C)CC)[C@@H](C)CC
B2: Example 48 (peptide)
peptide: Y[Aib]EGTFTSDYSILLDKIAQ[Aib]AFIEYLIEGGPSSGAPPPK([AEEA-AEEA-γGlu-C20 diacid])-NH2
modifications: N-terminus assumed
SMILES: CC[C@H](C)[C@H](NC(=O)[C@H](CCCCN)NC(=O)[C@H](CC(=O)O)NC(=O)[C@H](CC(C)C)NC(=O)[C@H](CC(C)C)NC(=O)[C@@H](NC(=O)[C@H](CO)NC(=O)[C@H](Cc1ccc(O)cc1)NC(=O)[C@H](CC(=O)O)NC(=O)[C@H](CO)NC(=O)[C@@H](NC(=O)[C@H](Cc1ccccc1)NC(=O)[C@@H](NC(=O)CNC(=O)[C@H](CCC(=O)O)NC(=O)C(C)(C)NC(=O)[C@@H](N)Cc1ccc(O)cc1)[C@@H](C)O)[C@@H](C)O)[C@@H](C)CC)C(=O)N[C@@H](C)C(=O)N[C@@H](CCC(N)=O)C(=O)NC(C)(C)C(=O)N[C@@H](C)C(=O)N[C@@H](Cc1ccccc1)C(=O)N[C@H](C(=O)N[C@@H](CCC(=O)O)C(=O)N[C@@H](Cc1ccc(O)cc1)C(=O)N[C@@H](CC(C)C)C(=O)N[C@H](C(=O)N[C@@H](CCC(=O)O)C(=O)NCC(=O)NCC(=O)N1CCC[C@H]1C(=O)N[C@@H](CO)C(=O)N[C@@H](CO)C(=O)NCC(=O)N[C@@H](C)C(=O)N1CCC[C@H]1C(=O)N1CCC[C@H]1C(=O)N1CCC[C@H]1C(=O)N[C@@H](CCCCNC(=O)COCCOCCNC(=O)COCCOCCNC(=O)CC[C@H](NC(=O)CCCCCCCCCCCCCCCCCCC(=O)O)C(=O)O)C(N)=O)[C@@H](C)CC)[C@@H](C)CC
B3: Example 58 (peptide)
peptide: Y[Aib]EGTFTSDYSSLLDKK([AEEA-AEEA-γGlu-C20 diacid])AQ[Aib]AFIEYLIEGGPSSGAPPPS-NH2
modifications: N-terminus assumed
SMILES: CC[C@H](C)[C@H](NC(=O)[C@H](CC(C)C)NC(=O)[C@H](Cc1ccc(O)cc1)NC(=O)[C@H](CCC(=O)O)NC(=O)[C@@H](NC(=O)[C@H](Cc1ccccc1)NC(=O)[C@H](C)NC(=O)C(C)(C)NC(=O)[C@H](CCC(N)=O)NC(=O)[C@H](C)NC(=O)[C@H](CCCCNC(=O)COCCOCCNC(=O)COCCOCCNC(=O)CC[C@H](NC(=O)CCCCCCCCCCCCCCCCCCC(=O)O)C(=O)O)NC(=O)[C@H](CCCCN)NC(=O)[C@H](CC(=O)O)NC(=O)[C@H](CC(C)C)NC(=O)[C@H](CC(C)C)NC(=O)[C@H](CO)NC(=O)[C@H](CO)NC(=O)[C@H](Cc1ccc(O)cc1)NC(=O)[C@H](CC(=O)O)NC(=O)[C@H](CO)NC(=O)[C@@H](NC(=O)[C@H](Cc1ccccc1)NC(=O)[C@@H](NC(=O)CNC(=O)[C@H](CCC(=O)O)NC(=O)C(C)(C)NC(=O)[C@@H](N)Cc1ccc(O)cc1)[C@@H](C)O)[C@@H](C)O)[C@@H](C)CC)C(=O)N[C@@H](CCC(=O)O)C(=O)NCC(=O)NCC(=O)N1CCC[C@H]1C(=O)N[C@@H](CO)C(=O)N[C@@H](CO)C(=O)NCC(=O)N[C@@H](C)C(=O)N1CCC[C@H]1C(=O)N1CCC[C@H]1C(=O)N1CCC[C@H]1C(=O)N[C@@H](CO)C(N)=O
B4: Example 87 (peptide)
peptide: YXEGTFTSDYSILLDKKAQXAFIEYLIEGGPSSGAPPPS
modifications: αMePro2; K17((2-[2-(2-Amino-ethoxy)-ethoxy]-acetyl)2-(γ-Glu)-CO-(CH2)18-CO2H); Aib20; C-terminal NH2
B5: Example 90 (peptide)
peptide: Y[Aib]NGTFTSDYSILLDKK([AEEA-AEEA-γGlu-C20 diacid])AQ[Aib]AFIEYLIEGGPSSGAPPPS-NH2
modifications: N-terminus assumed
SMILES: CC[C@H](C)[C@H](NC(=O)[C@H](CC(C)C)NC(=O)[C@H](Cc1ccc(O)cc1)NC(=O)[C@H](CCC(=O)O)NC(=O)[C@@H](NC(=O)[C@H](Cc1ccccc1)NC(=O)[C@H](C)NC(=O)C(C)(C)NC(=O)[C@H](CCC(N)=O)NC(=O)[C@H](C)NC(=O)[C@H](CCCCNC(=O)COCCOCCNC(=O)COCCOCCNC(=O)CC[C@H](NC(=O)CCCCCCCCCCCCCCCCCCC(=O)O)C(=O)O)NC(=O)[C@H](CCCCN)NC(=O)[C@H](CC(=O)O)NC(=O)[C@H](CC(C)C)NC(=O)[C@H](CC(C)C)NC(=O)[C@@H](NC(=O)[C@H](CO)NC(=O)[C@H](Cc1ccc(O)cc1)NC(=O)[C@H](CC(=O)O)NC(=O)[C@H](CO)NC(=O)[C@@H](NC(=O)[C@H](Cc1ccccc1)NC(=O)[C@@H](NC(=O)CNC(=O)[C@H](CC(N)=O)NC(=O)C(C)(C)NC(=O)[C@@H](N)Cc1ccc(O)cc1)[C@@H](C)O)[C@@H](C)O)[C@@H](C)CC)[C@@H](C)CC)C(=O)N[C@@H](CCC(=O)O)C(=O)NCC(=O)NCC(=O)N1CCC[C@H]1C(=O)N[C@@H](CO)C(=O)N[C@@H](CO)C(=O)NCC(=O)N[C@@H](C)C(=O)N1CCC[C@H]1C(=O)N1CCC[C@H]1C(=O)N1CCC[C@H]1C(=O)N[C@@H](CO)C(N)=O
B6: Example 108 (peptide)
peptide: B4 peptide
modifications: Aib2; K17((2-[2-(2-Amino-ethoxy)-ethoxy]-acetyl)-AOC-(γ-Glu)-CO-(CH2)18-CO2H); Aib20; C-terminal NH2
B7: Example 109 (peptide)
peptide: B4 peptide
modifications: Aib2; K17(AOC-(2-[2-(2-Amino-ethoxy)-ethoxy]-acetyl)-(γ-Glu)-CO-(CH2)18-CO2H); Aib20; C-terminal NH2
B8: Example 110 (peptide)
peptide: B4 peptide
modifications: Aib2; K17((2-[2-(2-Amino-ethoxy)-ethoxy]-acetyl)-(γ-Glu)-(Trx)-CO-(CH2)18-CO2H); Aib20; C-terminal NH2

Legend:
[1] = molecular target: T2, human glucagon receptor (human, UniProt P47871 26-477); assay: SPA, [125I]-Gcg displacement, hGcgR membranes
T2 construct: whole, on cells; Used as crude membranes of stably transfected HEK293 cells; also called hGcgR; hGLcgR
T2 sequence (P47871 26-477): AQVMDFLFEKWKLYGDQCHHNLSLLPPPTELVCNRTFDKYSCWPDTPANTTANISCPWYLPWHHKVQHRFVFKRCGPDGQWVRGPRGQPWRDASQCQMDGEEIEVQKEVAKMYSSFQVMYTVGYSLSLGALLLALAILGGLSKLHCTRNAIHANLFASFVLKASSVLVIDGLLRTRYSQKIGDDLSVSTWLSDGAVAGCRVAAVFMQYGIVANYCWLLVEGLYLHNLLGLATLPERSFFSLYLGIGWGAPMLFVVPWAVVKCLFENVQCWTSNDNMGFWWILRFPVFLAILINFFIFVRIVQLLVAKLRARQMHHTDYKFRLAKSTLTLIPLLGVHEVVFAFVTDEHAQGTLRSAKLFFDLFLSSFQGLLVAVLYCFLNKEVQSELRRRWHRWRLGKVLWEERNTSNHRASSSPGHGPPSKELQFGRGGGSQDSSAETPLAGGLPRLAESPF

[2] = molecular target: T3, human GLP-1 receptor (human, UniProt P43220 24-463); assay: SPA, [125I]-GLP-1 displacement, hGLP-1R membranes
T3 construct: whole, on cells; Used as crude membranes of stably transfected HEK293 cells; also called hGLP1R; hGLP-1R

[3] = molecular target: T1, human GIP receptor; assay: SPA, [125I]-GIP displacement, hGIPR membranes

| Binder | Ki [1] [nM] | Ki [2] [nM] | Ki [3] [nM] |
| --- | --- | --- | --- |
| B1 | 133 | 13.4 | 0.0852 |
| B2 | 111 | 15.7 | 0.074 |
| B3 | 339 | 2.77 | 0.105 |
| B4 | 278 | 1.79 | 0.034 |
| B5 | 245 | 4.76 | 0.0472 |
| B6 | 171 | 3 | 0.0732 |
| B7 | 43.1 | 1.34 | 0.0279 |
| B8 | 73.9 | 4.38 | 0.0395 |
